Measured values published in IntAct's records for PubMed 29892012.

B1: Cyclic AMP-dependent transcription factor ATF-4 (Homo sapiens), P18848 (parent)
chain: MTEMSFLSSEVLVGDLMSPFDQSGLGAEESLGLLDDYLEVAKHFKPHGFSSDKAKAGSSEWLAVDGLVSPSNNSKEDAFSGTDWMLEKMDLKEFDLDALLGIDDLETMPDDLLTTLDDTCDLFAPLVQETNKQPPQTVNPIGHLPESLTKPDQVAPFTFLQPLPLSPGVLSSTPDHSFSLELGSEVDITEGDRKPDYTAYVAMIPQCIKEEDTPSDNDSGICMSPESYLGSPQHSPSTRGSPNRSLPSPGVLCGSARPKPYDPPGEKMVAAKVKGEKLDKKLKKMEQNKTAATRYRQKKRAEQEALTGECKELEKKNEALKERADSLAKEIQYLKDLIEEVRKARGKKRVP
B2: Keratin, type I cuticular Ha8 (Homo sapiens), O76015 (parent)
chain: MTSSYSSSSCPLGCTMAPGARNVSVSPIDIGCQPGAEANIAPMCLLANVAHANRVRVGSTPLGRPSLCLPPTCHTACPLPGTCHIPGNIGICGAYGENTLNGHEKETMQFLNDRLANYLEKVRQLEQENAELEATLLERSKCHESTVCPDYQSYFHTIEELQQKILCSKAENARLIVQIDNAKLAADDFRIKLESERSLRQLVEADKCGTQKLLDDATLAKADLEAQQESLKEEQLSLKSNHEQEVKILRSQLGEKLRIELDIEPTIDLNRVLGEMRAQYEAMLETNRQDVEQWFQAQSEGISLQDMSCSEELQCCQSEILELRCTVNALEVERQAQHTLKDCLQNSLCEAEDRFGTELAQMQSLISNVEEQLSEIRADLERQNQEYQVLLDVKTRLENEIATYRNLLESEDCKLPCNPCSTSPSCVTAPCAPRPSCGPCTTCGPTCGASTTGSRF

Variants of: B1
Conditions: with cc106_human CCDC106, Q9BWC9
Chain of cc106_human CCDC106, Q9BWC9 (Q9BWC9 whole entry): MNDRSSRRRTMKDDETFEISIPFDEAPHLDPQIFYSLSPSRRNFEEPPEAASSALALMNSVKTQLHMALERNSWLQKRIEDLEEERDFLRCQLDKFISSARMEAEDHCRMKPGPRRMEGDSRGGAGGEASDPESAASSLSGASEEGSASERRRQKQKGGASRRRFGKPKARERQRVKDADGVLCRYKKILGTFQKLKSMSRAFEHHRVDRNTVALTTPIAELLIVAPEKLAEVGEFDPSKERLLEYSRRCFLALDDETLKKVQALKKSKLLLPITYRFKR

effect of a mutation on the interaction | Variant
with no effect | L180F

Variants of: B1
Conditions: with ldoc1_human LDOC1, O95751
Chain of ldoc1_human LDOC1, O95751 (O95751 whole entry): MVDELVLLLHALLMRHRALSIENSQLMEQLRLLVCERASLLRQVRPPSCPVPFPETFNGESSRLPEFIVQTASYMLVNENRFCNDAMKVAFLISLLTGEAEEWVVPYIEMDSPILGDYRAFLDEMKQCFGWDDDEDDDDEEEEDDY

effect of a mutation on the interaction | Variant
with no effect | L180F

Variants of: B1
Conditions: with gps2_human GPS2, Q13227
Chain of gps2_human GPS2, Q13227 (Q13227 whole entry): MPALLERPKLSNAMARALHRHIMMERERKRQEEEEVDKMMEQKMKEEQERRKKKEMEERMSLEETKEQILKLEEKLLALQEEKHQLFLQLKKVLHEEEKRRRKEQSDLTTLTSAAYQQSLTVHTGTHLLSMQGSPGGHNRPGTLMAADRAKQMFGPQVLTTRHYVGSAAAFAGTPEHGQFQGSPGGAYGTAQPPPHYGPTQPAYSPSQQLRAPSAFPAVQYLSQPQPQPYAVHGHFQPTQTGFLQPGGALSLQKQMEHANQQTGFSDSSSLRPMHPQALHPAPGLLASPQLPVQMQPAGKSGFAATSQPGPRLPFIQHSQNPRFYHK

effect of a mutation on the interaction | Variant
with no effect | L180F

Variants of: B1
Conditions: with tthy_human TTR

effect of a mutation on the interaction | Variant
with no effect | L180F

Variants of: B1
Conditions: with fbw1a_human BTRC

effect of a mutation on the interaction | Variant
with no effect | L180F

Variants of: B2
Conditions: with k22e_human KRT2, P35908
Chain of k22e_human KRT2, P35908 (P35908 whole entry): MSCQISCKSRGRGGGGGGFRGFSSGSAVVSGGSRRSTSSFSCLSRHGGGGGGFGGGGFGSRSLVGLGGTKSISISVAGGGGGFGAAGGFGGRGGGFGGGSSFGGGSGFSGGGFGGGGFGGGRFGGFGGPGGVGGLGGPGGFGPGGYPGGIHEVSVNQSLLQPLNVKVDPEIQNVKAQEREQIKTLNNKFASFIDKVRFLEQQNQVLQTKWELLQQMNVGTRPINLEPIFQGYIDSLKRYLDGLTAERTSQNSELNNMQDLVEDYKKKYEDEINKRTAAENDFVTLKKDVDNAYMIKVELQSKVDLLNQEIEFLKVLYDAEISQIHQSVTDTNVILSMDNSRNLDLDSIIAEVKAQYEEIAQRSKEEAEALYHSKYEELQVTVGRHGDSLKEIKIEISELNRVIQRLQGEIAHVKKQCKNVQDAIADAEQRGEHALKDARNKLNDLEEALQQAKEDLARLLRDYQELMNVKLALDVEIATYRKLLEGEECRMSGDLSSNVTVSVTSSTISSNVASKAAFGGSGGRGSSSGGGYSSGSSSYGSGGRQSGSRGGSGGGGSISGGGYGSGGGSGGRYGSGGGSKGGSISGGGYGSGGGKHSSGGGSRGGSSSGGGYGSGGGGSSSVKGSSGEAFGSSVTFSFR

effect of a mutation on the interaction | Variant
with no effect | D306A

Variants of: B2
Conditions: with txnd5_human TXNDC5, Q8NBS9
Chain of txnd5_human TXNDC5, Q8NBS9 (Q8NBS9 whole entry): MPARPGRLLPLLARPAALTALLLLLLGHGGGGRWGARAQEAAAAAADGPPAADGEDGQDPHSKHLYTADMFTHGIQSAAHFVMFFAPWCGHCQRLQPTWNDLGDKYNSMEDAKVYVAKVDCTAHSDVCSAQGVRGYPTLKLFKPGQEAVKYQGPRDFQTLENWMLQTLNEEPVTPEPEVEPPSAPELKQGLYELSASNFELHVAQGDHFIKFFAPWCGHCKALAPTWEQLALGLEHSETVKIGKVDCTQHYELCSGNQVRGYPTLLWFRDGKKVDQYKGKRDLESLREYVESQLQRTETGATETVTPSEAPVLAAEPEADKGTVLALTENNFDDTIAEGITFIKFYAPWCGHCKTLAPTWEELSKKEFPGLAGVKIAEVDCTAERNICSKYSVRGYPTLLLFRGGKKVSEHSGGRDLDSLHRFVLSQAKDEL

effect of a mutation on the interaction | Variant
with no effect | D306A

Variants of: B2
Conditions: with prs8_human PSMC5, P62195
Chain of prs8_human PSMC5, P62195 (P62195 whole entry): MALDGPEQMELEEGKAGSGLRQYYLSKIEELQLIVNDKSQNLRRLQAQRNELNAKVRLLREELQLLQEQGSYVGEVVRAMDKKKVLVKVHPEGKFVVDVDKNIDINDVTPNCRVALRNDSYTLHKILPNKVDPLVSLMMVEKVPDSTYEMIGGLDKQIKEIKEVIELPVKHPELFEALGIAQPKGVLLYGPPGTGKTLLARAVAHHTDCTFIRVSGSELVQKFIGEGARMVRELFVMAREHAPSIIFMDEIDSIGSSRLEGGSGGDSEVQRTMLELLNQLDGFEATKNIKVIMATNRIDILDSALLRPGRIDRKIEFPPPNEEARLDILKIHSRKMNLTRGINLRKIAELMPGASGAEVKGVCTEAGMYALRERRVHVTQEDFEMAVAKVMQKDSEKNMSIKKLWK

effect of a mutation on the interaction | Variant
with no effect | D306A

Variants of: B2
Conditions: with p85b_human PIK3R2, O00459
Chain of p85b_human PIK3R2, O00459 (O00459 whole entry): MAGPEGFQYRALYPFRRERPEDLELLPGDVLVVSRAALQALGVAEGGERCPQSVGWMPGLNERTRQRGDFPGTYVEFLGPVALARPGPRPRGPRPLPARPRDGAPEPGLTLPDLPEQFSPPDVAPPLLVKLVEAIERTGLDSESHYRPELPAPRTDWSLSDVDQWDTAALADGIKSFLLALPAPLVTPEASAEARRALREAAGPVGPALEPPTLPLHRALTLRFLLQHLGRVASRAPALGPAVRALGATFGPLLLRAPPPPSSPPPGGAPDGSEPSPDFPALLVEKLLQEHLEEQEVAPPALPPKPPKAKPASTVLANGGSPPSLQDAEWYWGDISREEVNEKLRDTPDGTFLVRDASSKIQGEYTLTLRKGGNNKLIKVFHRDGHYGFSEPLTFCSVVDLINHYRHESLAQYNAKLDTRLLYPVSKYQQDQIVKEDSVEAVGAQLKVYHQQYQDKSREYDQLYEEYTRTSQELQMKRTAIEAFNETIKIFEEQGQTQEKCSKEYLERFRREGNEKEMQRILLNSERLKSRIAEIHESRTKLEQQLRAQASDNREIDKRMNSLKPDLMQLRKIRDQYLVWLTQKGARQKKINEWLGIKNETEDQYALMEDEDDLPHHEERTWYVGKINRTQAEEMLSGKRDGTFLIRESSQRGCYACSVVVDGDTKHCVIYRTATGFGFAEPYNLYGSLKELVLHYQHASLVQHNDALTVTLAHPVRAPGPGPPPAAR

effect of a mutation on the interaction | Variant
with no effect | D306A

Variants of: B2
Conditions: with KRT6A

effect of a mutation on the interaction | Variant
with no effect | D306A

Variants of: B2
Conditions: with k2c4_human KRT4, P19013
Chain of k2c4_human KRT4, P19013 (P19013 whole entry): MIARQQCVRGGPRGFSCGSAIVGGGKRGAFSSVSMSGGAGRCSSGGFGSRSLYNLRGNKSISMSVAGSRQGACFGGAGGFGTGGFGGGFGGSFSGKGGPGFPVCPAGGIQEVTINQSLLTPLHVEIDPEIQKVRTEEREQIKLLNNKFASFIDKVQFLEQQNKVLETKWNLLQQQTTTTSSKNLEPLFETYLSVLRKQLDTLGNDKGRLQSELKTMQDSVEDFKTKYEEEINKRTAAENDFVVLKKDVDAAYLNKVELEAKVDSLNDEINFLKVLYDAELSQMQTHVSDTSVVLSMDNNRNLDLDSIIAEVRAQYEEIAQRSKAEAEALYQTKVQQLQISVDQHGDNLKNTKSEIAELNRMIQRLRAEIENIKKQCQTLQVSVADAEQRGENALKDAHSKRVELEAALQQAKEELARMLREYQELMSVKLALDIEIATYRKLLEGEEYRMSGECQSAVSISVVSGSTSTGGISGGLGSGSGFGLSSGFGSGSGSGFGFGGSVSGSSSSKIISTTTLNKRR

effect of a mutation on the interaction | Variant
with no effect | D306A

Variants of: B2
Conditions: with txlnb_human TXLNB

effect of a mutation on the interaction | Variant
with no effect | D306A

Variants of: B2
Conditions: with KRT79, Q5XKE5
Chain of KRT79, Q5XKE5 (Q5XKE5 whole entry): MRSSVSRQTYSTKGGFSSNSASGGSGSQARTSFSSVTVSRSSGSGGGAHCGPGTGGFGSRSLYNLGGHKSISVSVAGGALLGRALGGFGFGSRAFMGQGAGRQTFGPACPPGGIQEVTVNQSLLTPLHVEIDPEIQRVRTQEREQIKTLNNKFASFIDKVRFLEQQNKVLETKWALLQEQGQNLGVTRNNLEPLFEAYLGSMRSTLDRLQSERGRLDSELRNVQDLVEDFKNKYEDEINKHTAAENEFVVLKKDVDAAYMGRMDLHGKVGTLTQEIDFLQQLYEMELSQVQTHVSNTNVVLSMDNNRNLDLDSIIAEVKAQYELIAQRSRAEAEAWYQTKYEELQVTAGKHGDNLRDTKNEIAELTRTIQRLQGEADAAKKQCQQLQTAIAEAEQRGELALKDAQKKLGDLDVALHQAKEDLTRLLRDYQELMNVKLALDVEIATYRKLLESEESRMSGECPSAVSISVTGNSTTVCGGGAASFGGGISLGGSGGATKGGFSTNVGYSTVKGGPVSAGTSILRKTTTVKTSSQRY

effect of a mutation on the interaction | Variant
with no effect | D306A

Variants of: B2
Conditions: with txlna_human TXLNA

effect of a mutation on the interaction | Variant
with no effect | D306A

Variants of: B2
Conditions: with k22e_human KRT2, P35908
Remark: another data set of the same source

effect of a mutation on the interaction | Variant
with no effect | N270K

Variants of: B2
Conditions: with txnd5_human TXNDC5, Q8NBS9
Remark: another data set of the same source

effect of a mutation on the interaction | Variant
with no effect | N270K

Variants of: B2
Conditions: with prs8_human PSMC5, P62195
Remark: another data set of the same source

effect of a mutation on the interaction | Variant
with no effect | N270K

Variants of: B2
Conditions: with p85b_human PIK3R2, O00459
Remark: another data set of the same source

effect of a mutation on the interaction | Variant
with no effect | N270K

Variants of: B2
Conditions: with KRT6A
Remark: another data set of the same source

effect of a mutation on the interaction | Variant
with no effect | N270K

Variants of: B2
Conditions: with k2c4_human KRT4, P19013
Remark: another data set of the same source

effect of a mutation on the interaction | Variant
with no effect | N270K

Variants of: B2
Conditions: with txlnb_human TXLNB
Remark: another data set of the same source

effect of a mutation on the interaction | Variant
with no effect | N270K

Variants of: B2
Conditions: with KRT79, Q5XKE5
Remark: another data set of the same source

effect of a mutation on the interaction | Variant
with no effect | N270K

Variants of: B2
Conditions: with txlna_human TXLNA
Remark: another data set of the same source

effect of a mutation on the interaction | Variant
with no effect | N270K
